Values belong to the substance of their own block, whether it stands above or below them.
Legend:
IL-11:sIL-11R complex = IL-11:sIL-11R complex (UniProt P20809)
IL-6:sIL-6R complex = IL-6:sIL-6R complex (UniProt P05231)
[1] = molecular target: Hyper-IL-6 (Homo sapiens) (UniProt P05231); conditions: cited from earlier work
Hyper-IL-6 (Homo sapiens), sequence (P05231 30-212, chain 1 of 2): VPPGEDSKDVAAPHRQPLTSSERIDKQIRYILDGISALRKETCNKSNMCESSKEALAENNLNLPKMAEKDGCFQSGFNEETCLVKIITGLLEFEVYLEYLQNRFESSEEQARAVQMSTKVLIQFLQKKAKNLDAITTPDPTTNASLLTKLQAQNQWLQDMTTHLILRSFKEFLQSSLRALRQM
Hyper-IL-6 (Homo sapiens), sequence (partner, as listed by the source, chain 2 of 2): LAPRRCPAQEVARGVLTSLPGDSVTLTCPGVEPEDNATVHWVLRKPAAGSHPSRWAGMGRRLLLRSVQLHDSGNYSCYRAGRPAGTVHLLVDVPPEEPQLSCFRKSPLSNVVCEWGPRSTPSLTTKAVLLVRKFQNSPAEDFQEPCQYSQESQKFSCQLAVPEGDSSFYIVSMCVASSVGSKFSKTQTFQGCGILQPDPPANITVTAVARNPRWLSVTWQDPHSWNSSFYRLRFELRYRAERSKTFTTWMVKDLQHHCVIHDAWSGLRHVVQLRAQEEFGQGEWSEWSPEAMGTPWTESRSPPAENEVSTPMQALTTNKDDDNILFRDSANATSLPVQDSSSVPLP

IL-6:sIL-6R complex, sequence (P05231 30-212, chain 1 of 2): as the sequence (P05231 30-212, chain 1 of 2) above
IL-6:sIL-6R complex, sequence (P08887 20-365, chain 2 of 2, further chain): as the sequence (partner, as listed by the source, chain 2 of 2) above
sgp130Fc, sequence (P40189 23-619): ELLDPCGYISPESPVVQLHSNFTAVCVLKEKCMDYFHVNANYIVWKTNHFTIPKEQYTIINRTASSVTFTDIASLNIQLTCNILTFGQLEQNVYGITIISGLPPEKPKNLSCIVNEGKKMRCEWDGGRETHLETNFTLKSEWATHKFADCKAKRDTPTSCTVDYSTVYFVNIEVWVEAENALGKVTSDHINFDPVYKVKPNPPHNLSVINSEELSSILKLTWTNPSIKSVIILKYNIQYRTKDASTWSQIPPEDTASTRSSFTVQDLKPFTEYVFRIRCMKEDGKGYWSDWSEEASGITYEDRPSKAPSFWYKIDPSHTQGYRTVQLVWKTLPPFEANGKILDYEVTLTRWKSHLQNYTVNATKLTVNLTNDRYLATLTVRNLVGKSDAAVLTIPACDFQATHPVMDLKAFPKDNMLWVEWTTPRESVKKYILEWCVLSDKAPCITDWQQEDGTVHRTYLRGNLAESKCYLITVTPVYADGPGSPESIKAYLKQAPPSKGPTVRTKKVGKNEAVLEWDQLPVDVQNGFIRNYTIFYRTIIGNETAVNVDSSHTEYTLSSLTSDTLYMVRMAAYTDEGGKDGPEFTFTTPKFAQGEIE
sgp130^R281QFc, sequence (P40189 23-619 R281Q): as the sequence (P40189 23-619) above, with R259Q counted along it
IL-11:sIL-11R complex, sequence (P20809 22-199, chain 1 of 2): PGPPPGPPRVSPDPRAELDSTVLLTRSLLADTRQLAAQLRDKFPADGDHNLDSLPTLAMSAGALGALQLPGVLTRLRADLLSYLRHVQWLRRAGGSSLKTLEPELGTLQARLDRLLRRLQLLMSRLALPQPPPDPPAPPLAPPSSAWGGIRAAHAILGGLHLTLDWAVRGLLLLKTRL
IL-11:sIL-11R complex, sequence (Q14626 24-370, chain 2 of 2, further chain): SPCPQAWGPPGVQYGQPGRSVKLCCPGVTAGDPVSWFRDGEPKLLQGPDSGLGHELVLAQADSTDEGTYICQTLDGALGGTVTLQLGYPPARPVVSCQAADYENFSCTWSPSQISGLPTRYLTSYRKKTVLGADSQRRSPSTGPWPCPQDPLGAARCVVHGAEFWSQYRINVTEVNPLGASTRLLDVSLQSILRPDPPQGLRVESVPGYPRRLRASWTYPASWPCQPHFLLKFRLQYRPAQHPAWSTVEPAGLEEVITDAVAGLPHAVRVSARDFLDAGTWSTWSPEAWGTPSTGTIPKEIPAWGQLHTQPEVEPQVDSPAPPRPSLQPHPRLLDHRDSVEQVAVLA

IC50 of inhibition of sIL-11R/IL-11 (10/100 ng/ml) induced proliferation of Ba/F3-gp130 cells (blocks the complex from membrane-bound gp130) (IL-11:sIL-11R complex): 0.29 nM | IC50 of inhibition of IL-6/sIL-6R (50/100 ng/ml) induced proliferation of Ba/F3-gp130 cells (blocks the complex from membrane-bound gp130) (IL-6:sIL-6R complex): 0.45 nM
Substance: sgp130Fc (from UniProt P40189 23-619) (Fc fusion)

Substance: sgp130FlyFc ECD (from UniProt P40189)
Kd [1]: 0.122 nM

IC50 of inhibition of sIL-6R/IL-6 (50/100 ng/ml) induced proliferation of Ba/F3-gp130 cells (blocks the complex from membrane-bound gp130) (IL-6:sIL-6R complex): 0.78 nM
Substance: sgp130^R281QFc (from UniProt P40189 23-619) (Fc fusion)
